# Reference: patent US20240218063A1 (HARPOON THERAPEUTICS, published 2024)
# T1: human DLL3 on DLL3 expressing cancer cell lines (human, UniProt Q9NYJ7 27-618)
# T1 sequence: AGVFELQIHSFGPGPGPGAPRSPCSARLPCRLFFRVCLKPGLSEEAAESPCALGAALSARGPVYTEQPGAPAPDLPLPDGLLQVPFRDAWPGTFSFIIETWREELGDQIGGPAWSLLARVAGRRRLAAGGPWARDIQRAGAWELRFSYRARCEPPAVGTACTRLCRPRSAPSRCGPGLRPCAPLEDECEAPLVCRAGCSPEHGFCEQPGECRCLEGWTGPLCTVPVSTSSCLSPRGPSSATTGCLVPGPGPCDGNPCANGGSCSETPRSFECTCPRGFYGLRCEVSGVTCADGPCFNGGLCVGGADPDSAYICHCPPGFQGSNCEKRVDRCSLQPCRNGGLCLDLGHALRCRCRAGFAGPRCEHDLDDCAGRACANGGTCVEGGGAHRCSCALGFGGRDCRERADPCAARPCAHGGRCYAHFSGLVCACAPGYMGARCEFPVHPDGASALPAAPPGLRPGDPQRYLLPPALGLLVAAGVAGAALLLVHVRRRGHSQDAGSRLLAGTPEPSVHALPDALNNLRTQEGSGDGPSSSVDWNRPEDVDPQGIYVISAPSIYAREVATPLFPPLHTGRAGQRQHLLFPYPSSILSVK
# Target: T1, human DLL3 on DLL3 expressing cancer …
# Experiment: cell-based or functional assay
row,Binder,"TDCC EC50, CHO expressed purified protein [pM]"
1,"anti-DLL3 trispecific protein 1A011 (other, not shown: small tags and cut ends) EVQLVESGGGLVQPGGSLTLSCVASGSTSSINAIGWYRRAPGKQRELVAGISSDGSKVYIDSVKGRFTISRDNAKNSVYLQMNSLRAEDTAVYYCYYFRTVSGSSYRYWGQGTLVTVSS",170
2,"anti-DLL3 trispecific protein 2H02 (other, not shown: small tags and cut ends) EVQLVESGGGLVQPGGSLTLSCVASGSTSSINAMAWYRRAPGKQRELAAGISSDGSKVYADSVKGRFTISRDNAKNSVYLQMNSLRAEDTAVYYCYYFHTVSGSSMRYWGQGTLVTVSS",96
3,"anti-DLL3 trispecific protein 2E05 (other, not shown: small tags and cut ends) EVQLVESGGGLVQPGGSLTLSCVASGSPSSINAYGWYRRAPGKQRELVAGISSDGSKVYSDSVKGRFTISRDNAKNSVYLQMNSLRAEDTAVYYCYYFRTVSGSSMSYWGQGTLVTVSS",72
4,"anti-DLL3 trispecific protein 2C04 (other, not shown: small tags and cut ends) EVQLVESGGGLVQPGGSLTLSCVASGSTSSRNAMGWYRRAPGKQRELVAGISSDGSKLYADSVKGRFTISRDNAKNSVYLQMNSLRAEDTAVYYCYYFRTVLGSSMRYWGQGTLVTVSS",43
5,"anti-DLL3 trispecific protein 4D09 (other, not shown: small tags and cut ends) EVQLVESGGGLVQPGGSLTLSCAASGSSVKFLSMAWYRQAPGKKRELVAGISADGSTDYILSVKGRFTISRDNAKNSVYLQMNSLRAEDTAVYYCYAYEWTTRYTYWGQGTLVTVSS",60
6,"anti-DLL3 trispecific protein 4D011 (other, not shown: small tags and cut ends) EVQLVESGGGLVQPGGSLTLSCAASGSSVRFLSMAWYRQAPGKKRELVAGISVDGSTDYIDSVKGRFTISRDNAKNSVYLQMNSLRAEDTAVYYCYAYRWRTRYTYWGQGTLVTVSS",98

# Results, then the binder that gave them:
row,"TDCC EC50, CHO expressed purified protein [pM]",Binder
1,63,"anti-DLL3 trispecific protein 1H012 (other, not shown: small tags and cut ends) EVQLVESGGGLVQPGGSLTLSCVASGSTSSINAMGWYRRAPGKQRELVAGISSDGSKVYVDSVKGRFTISRDNAKNSVYLQMNSLRAEDTAVYYCYYFRTVSGSSMPYWGQGTLVTVSS"
2,120,"anti-DLL3 trispecific protein 2E02 (other, not shown: small tags and cut ends) EVQLVESGGGLVQPGGSLTLSCVASGSTSAINAMGWYRRAPGKQRELVAGISSDGSKVYVDSVKGRFTISRDNAKNSVYLQMNSLRAEDTAVYYCYYFRTVSGSSQRYWGQGTLVTVSS"

# Target: T1, human DLL3 on DLL3 expressing cancer …
# Experiment: cell-based or functional assay
# Remark: another data set of the same source
row,fold increase in TDCC potency compared to the parental DLL3 binder DH6 [fold],Binder
1,> 8,"anti-DLL3 trispecific protein 4H011 (other, not shown: small tags and cut ends) EVQLVESGGGLVQPGGSLTLSCAASGSSVSRLSMAWYRQAPGKKRELVAGISVDGSTDYIDSVKGRFTISRDNAKNSVYLQMNSLRAEDTAVYYCYAYRWTTRLTYWGQGTLVTVSS"
